What was measured:
[1] = molecular target: Ro60 (human, UniProt P10155 1-538); test: EMSA; 10-fold molar excess competitor tRNA; about 30-40% of RNA shifted at 4:1 protein:RNA; 10 mM Tris-HCl pH 7.5, 100 mM NaCl, 3 mM MgCl2, 1 mM DTT, 10-fold molar excess tRNA, 80 ng hY1 RNA, 15 min at 37 C; native 8% PAGE at 4 C; conditions: protein: recombinant; tags: poly-His (pET28a); label: 32P (alpha-32P UTP, internal)
[2] = molecular target: T1, La (human, UniProt P05455 1-408); test: EMSA; 10-fold molar excess competitor tRNA; >90% of RNA shifted at 1:1 protein:RNA; 10 mM Tris-HCl pH 7.5, 100 mM NaCl, 3 mM MgCl2, 1 mM DTT, 10-fold molar excess tRNA, 80 ng hY1 RNA, 15 min at 37 C; native 8% PAGE at 4 C; conditions: protein: recombinant; label: 32P (alpha-32P UTP, internal)
T1 sequence: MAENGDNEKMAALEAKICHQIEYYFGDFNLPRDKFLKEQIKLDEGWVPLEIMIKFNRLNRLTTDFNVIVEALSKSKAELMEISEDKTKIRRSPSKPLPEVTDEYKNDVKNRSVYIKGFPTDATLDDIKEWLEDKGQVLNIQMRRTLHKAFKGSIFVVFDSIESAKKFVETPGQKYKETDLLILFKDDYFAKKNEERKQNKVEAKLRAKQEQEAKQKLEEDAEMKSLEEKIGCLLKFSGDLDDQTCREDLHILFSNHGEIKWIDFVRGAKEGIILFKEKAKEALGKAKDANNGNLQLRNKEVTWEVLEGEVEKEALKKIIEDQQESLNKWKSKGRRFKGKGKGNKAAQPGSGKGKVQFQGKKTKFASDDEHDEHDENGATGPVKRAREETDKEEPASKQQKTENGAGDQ

[3] = molecular target: Ro60;La (human;human, UniProt P10155;P05455 1-538;1-408, |); test: EMSA; 10-fold molar excess competitor tRNA; RNA:Ro60:La 1:4:4; super-shift, ternary complex; 10 mM Tris-HCl pH 7.5, 100 mM NaCl, 3 mM MgCl2, 1 mM DTT, 10-fold molar excess tRNA, 80 ng hY1 RNA, 15 min at 37 C; native 8% PAGE at 4 C; conditions: protein: recombinant;recombinant; copies: 1;1; label: 32P (alpha-32P UTP, internal)

Measured: binding result

Sequence of Ro60;La (P10155 whole entry, one chain of several): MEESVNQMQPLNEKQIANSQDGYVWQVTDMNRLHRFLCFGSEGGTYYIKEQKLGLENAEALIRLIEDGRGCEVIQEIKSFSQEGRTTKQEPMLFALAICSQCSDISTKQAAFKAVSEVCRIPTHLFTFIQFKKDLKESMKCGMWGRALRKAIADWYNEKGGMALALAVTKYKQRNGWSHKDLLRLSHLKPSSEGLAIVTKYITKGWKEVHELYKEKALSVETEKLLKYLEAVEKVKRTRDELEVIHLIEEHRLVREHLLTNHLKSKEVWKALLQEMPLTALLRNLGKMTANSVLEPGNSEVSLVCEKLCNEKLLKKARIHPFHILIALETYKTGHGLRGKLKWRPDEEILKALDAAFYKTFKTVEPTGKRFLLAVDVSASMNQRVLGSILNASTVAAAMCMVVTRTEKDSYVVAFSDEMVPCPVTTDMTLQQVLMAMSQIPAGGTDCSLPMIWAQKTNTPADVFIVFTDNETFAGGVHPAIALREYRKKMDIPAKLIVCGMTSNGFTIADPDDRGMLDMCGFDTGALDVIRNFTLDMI
Sequence of Ro60 (P10155 whole entry): as the sequence (P10155 whole entry, one chain of several) above

B1: hY1 RNA (structured_RNA)
RNA: GGCUGGUCCGAAGGUAGUGAGUUAUCUCAAUUGAUUGUUCACAGUCAGUUACAGAUCGAACUCCUUGUUCUACUCUUUCCCCCCUUCUCACUACUGCACUUGACUAGUCUUU
binds: all assays above

Reference: PMC2965120, “Ribonucleoprotein Particles Containing Non-Coding Y RNAs, Ro60, La and Nucleolin Are Not Required for Y RNA Function in DNA Replication”
